The results in this text go back to the nanobody polyreactivity screen of Harvey et al. (2022).

A short description of the data set: yeast display, Sf9 membrane polyspecificity reagent, FACS + sequencing; frameworks hold sequencing errors. The method, boiled down:
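Nanobodies came from a synthetic yeast display library in Saccharomyces cerevisiae BJ5465, induced with galactose for 36–48 hours and stained for 1 hour at 4 °C with 10% biotinylated, detergent-solubilized Sf9 membrane reagent. Cells were enriched on streptavidin microbeads and then FACS-sorted, with low and high (top ~1%) gates set on anti-HA fluorescence for expression and streptavidin fluorescence for reagent binding. Each polyreactivity label reflects the gate a clone came from. Genes were amplified by colony PCR, sequenced by MiSeq 2 × 250 and filtered by CDR length.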
For the sequence “QVQLVESGGGLVQAGGSLRLSCAASRFIFGKYAMGWYRQAPGKEREFVAAITRSGGSTYYADSVKGRFTISRDNAKNTVYLQMNSLKPEDTAVYYCAAYSLKYYNGYDYWGQGTQVTVSS”, the “polyreactivity (PSR sort gate)” value is reported as “high polyreactivity”.

For “QVQLVESGGGLVQAGGSLRLSCAASRFIFYYYALGWYRQAPGKERELVAAITWSGGSTYYADSVKGRFTISRDNAKNTVYLQMNSLKPEETAEYYCAVYSTEYKLLWGGISYDYWGQGTQVTVSS”, the “polyreactivity (PSR sort gate)” value is “low polyreactivity”.

Regarding “QVQLVESGGGLVQAGGSLRLSCAASRFNFDRNVSGWYRQEPGKERELVAAITGSGGRTYYADSVKGRFKISRDNAKNTVYLQMNSLKPEDTAVYYCARAFGQRRYVYWGQGTQVTVSS”, the “polyreactivity (PSR sort gate)” value was “high polyreactivity”.

With “QVQLVESGGGLVQAGGSLRLSCAASRITFRFYAMGWSRQAPGKERELVAVISRGGGTTYYADSVKGRFTISRDNAKNTVYLQMNSLKPEDTAVYYCNAVIAWYRSDEYDYWGQGTQVTVSS”, the “polyreactivity (PSR sort gate)” value is “high polyreactivity”.

In the case of “QVQLVESGGGLVQAGGSLRLSCAASRMGWYRQAPGKERELVARISGGVSTNYADSVRGRFTISRDNAKNTVYLQMNSVKPEDTAVYYCAADPLDTYDYWGQGTQATVSS”, the “polyreactivity (PSR sort gate)” value is “low polyreactivity”.

For the sequence “QVQLVESGGGLVQAGGSLRLSCAASRRIFYGYAMGWYRQAPGKERELVAAISLRTGSTFYADSVKGRFTISRDNAMNTVYLQMNSLKPEDTAVYYCAKEESYRPYIYVMDYWGQGTQVTVSS”, the “polyreactivity (PSR sort gate)” value is listed as “low polyreactivity”.

Take “QVQLVESGGGLVQAGGSLRLSCAASRRISHYYAMGWYRQAPGKERALVASIRISGGSTYYADSVKGRFTISRDYAKNTVFLQMNSLKPEDTAVYYCATLGYNWRRLYYWGQGTEVTVSS”: the “polyreactivity (PSR sort gate)” value is given as “high polyreactivity”.

Take “QVQLVESGGGLVQAGGSLRLSCAASRRIYGGNAMGLNRKAPGKERELVAAINSSGGRTYYADSVKGRFKISRDNAKNTVYLQMKSLKTEDTAVYYCAGRVGCNWYDYWGQGTQVPVSS”: the “polyreactivity (PSR sort gate)” value was “high polyreactivity”.

Take “QVQLVESGGGLVQAGGSLRLSCAASRRTLGKYVMGRYRQQPGKERELVPAIRSGTNTYYADSVKGRFTISRDNAKNTVYLQMNSLIPEDTAVYYCGAARYTKFDYWGQGTQLTVSS”: the “polyreactivity (PSR sort gate)” value is listed as “high polyreactivity”.

“QVQLVESGGGLVQAGGSLRLSCAASRSIFEANDMGWYRQAQGKERELVAAIDANTGSTYYADSVKGRFTISRDNAKNTVYLQMNRLKPEDTAVYYCNAQVYLHTAYDYWGQGTQVTVSS”: the “polyreactivity (PSR sort gate)” value is “low polyreactivity”.

For “QVQLVESGGGLVQAGGSLRLSCAASRSTFAYYSMGWYRKEPGKETELVAAITRGGSTNYADSVKGRFRISRDNAKNTVLLQMNSLKPEDTAVYYCAAGDVQDYEYDYLGQGTQVTVSS”, the “polyreactivity (PSR sort gate)” value is on record as “low polyreactivity”.

Turning to “QVQLVESGGGLVQAGGSLRLSCAASRSTFPWYAMGWYRQAPGKERELVARINSGGSTTYADSVKGRFTISRDNAKNTVYLQMNSLKPEDTAVYYCAADRWYSTYLASYYGYDYWGQGTQVTVSS”, the “polyreactivity (PSR sort gate)” value is reported as “low polyreactivity”.

As for “QVQLVESGGGLVQAGGSLRLSCAASRSTLLSNAMGWYTQAPGKERELVAAINYSGGRTYYADSVKGRFTISRDNAKNTVYLQINSLKPVDTAVYYCNALSSGHGSSSRYDYWGQGTQVTVSS”, the “polyreactivity (PSR sort gate)” value is reported as “low polyreactivity”.

For the sequence “QVQLVESGGGLVQAGGSLRLSCAASRTIIASYAMGSYRQAPGKERELVAAISRSGGRTYYADSVKGRFTISRDNAQNTVYLQMNSLKPEDSAVYYCNVLQPQSSDWLITYDYWGQGTQVTVSS”, the “polyreactivity (PSR sort gate)” value is given as “high polyreactivity”.

Consider “QVQLVESGGGLVQAGGSLRLSCAASRYYAMGWYRQAPGKERELVPAITWSGGTTYYADSVKGRFTISRYNGKNTVYLQMNSLTPEDTAVYYCNADFVRFTRHKKYYYWGQGTQVTVSS”, for which the “polyreactivity (PSR sort gate)” value is reported as “low polyreactivity”.

On to “QVQLVESGGGLVQAGGSLRLSCAASVFTFDENAMGWYRQAPGINYSGASTYYADSVKGRFTISRDNAKNTVYLQMNSLKPDDTAVYYCAAEVVAQMNYWGQGTQVTVSS”, for which the “polyreactivity (PSR sort gate)” value is on record as “low polyreactivity”.

Turning to “QVQLVESGGGLVQAGGSLRLSCAASVFTFSRYAMGWYRQAPGKERELVAAITSRGGSTYYADSVKGRFTISRDNAKNTVYLQMNSLKPEDTAVYYCAASGRNRKDGLYEYYYWGQGTQVTVSS”, the “polyreactivity (PSR sort gate)” value was “high polyreactivity”.

In the case of “QVQLVESGGGLVQAGGSLRLSCAASVFTFWWYDMGWYIQAPGKERELVAAISRGGSTYYADSVKGRFTISRDNAKNTVNLQMNSLKPEDTAVYYCAADTTYGINRREYWGQGTQVTVSS”, the “polyreactivity (PSR sort gate)” value is given as “low polyreactivity”.

For the sequence “QVQLVESGGGLVQAGGSLRLSCAASVGIFIYNAMGWYRQAPGKEREFVAAINISGGNTYYADSVKGRFTISRDNAKNTVFLQMNSLKPEDTGVYYCAARYASCWWIRYYYWGQGTQVTVSS”, the “polyreactivity (PSR sort gate)” value is “high polyreactivity”.

As for “QVQLVESGGGLVQAGGSLRLSCAASVIIFSYNAMGWYRQAPGKERELVAAISYSGGSTYYADSVKGRFTISRDNAKNTVYLQMNSLKPEDTAVYYCAAEKYLGELDYWGQGTQVTVSS”, the “polyreactivity (PSR sort gate)” value was “low polyreactivity”.

With “QVQLVESGGGLVQAGGSLRLSCAASVITFGANTMGWDIQAPGKERELVATLTSSGGSTYYADSVKGRFTISRDNAKNTVYLQMNSLKPEDTAVYYCAASDLRDRGNYVYLPSEYWGLGTQVTVSS”, the “polyreactivity (PSR sort gate)” value is given as “low polyreactivity”.

Regarding “QVQLVESGGGLVQAGGSLRLSCAASVITFIDYARGWYRQAPGKERELVAAINSSGGGTYYADSVKGRFTISRDNAKNTVYLQMNSLKPEDTAVYYCAADFWYWGQIDSSDYWGQGTQVTVSS”, the “polyreactivity (PSR sort gate)” value is recorded as “low polyreactivity”.

Take “QVQLVESGGGLVQAGGSLRLSCAASVLIFGPYTMGWYRQAPGKEREFDAAINRSGGSTYYADSVKGRFTISRDNAKNTVYLQMNSLKPEDTAVYYCNAEQYGKQWYSGYNYDYWGQGTQVTVSS”: the “polyreactivity (PSR sort gate)” value is recorded as “high polyreactivity”.

On to “QVQLVESGGGLVQAGGSLRLSCAASVLIIGYNSMGWYRQAPGTERELVASIRYSGGTTYYADSVKGRFTISRDNEKNTVNLQMNSVKPEDTAVYFCATRVTYRRRFDYWGQGTQVTVSS”, for which the “polyreactivity (PSR sort gate)” value was “high polyreactivity”.

In the case of “QVQLVESGGGLVQAGGSLRLSCAASVRIFVDNTMGLYRQAPGKERELVAVITSGGSTNYADSVKGRFTISRDNAKNTVYLQMNSLKPEDTAVYYCATEPGGDRFDDRPFQYGYWGQGTQVTVSS”, the “polyreactivity (PSR sort gate)” value is listed as “low polyreactivity”.

In the case of “QVQLVESGGGLVQAGGSLRLSCAASVRTFEGYAMGWDRQEPGKERELVAAISKSGGRTYYADSVKGRFTISRDNAKNTVYLQMNSLKPEHTAVYYCAARVSSGSNSDYWGQGTQVTVSS”, the “polyreactivity (PSR sort gate)” value is “high polyreactivity”.

Turning to “QVQLVESGGGLVQAGGSLRLSCAASVRTFGFNVMGWYRQAPGKERELVAAISWSGGSTYYADSVKGRFTISRDNAKNTVYLQMNSLKPEVTAVYYCNKRYVHRYGYWGQGTQVTVSS”, the “polyreactivity (PSR sort gate)” value is on record as “low polyreactivity”.

For “QVQLVESGGGLVQAGGSLRLSCAASVRTFKFYAMGWYRQAPGKERELVAAITSSGGSTYYADSVKGRFTISRVNAKNTVYLQMNSLKPEDTAVYYCAAVGYKGYGYDYWGQGTQVTVSS”, the “polyreactivity (PSR sort gate)” value is “high polyreactivity”.

In the case of “QVQLVESGGGLVQAGGSLRLSCAASVRTMGPYTMGWYRPAPGKERELVAVISSRTGLTYYADSVKGRFTISRDNAKITFYLHMNSLKPEDTAVYYCNAGGRYHAPSGDYWGQGTQVTVSS”, the “polyreactivity (PSR sort gate)” value was “low polyreactivity”.

With “QVQLVESGGGLVQAGGSLRLSCAASVSIFDSYAMAWYRQAPGKERELVAAISKRGGSTYYADSVKGRFTISRDTAKNTVYLQMNCLKPEDTAVYFCAAVYSQARSKAVYSEYYYWGLGTQVTVSS”, the “polyreactivity (PSR sort gate)” value was “high polyreactivity”.
